In publication PMC9482650, “Quantitative fragmentomics allow affinity mapping of interactomes” (Nature Communications, 2022):
Where a chain is given by its changes, count along the chain named. Blank lines part the entries; values can stand above or below the binder they belong to.

Columns and labels:
Assay in all cases: holdup assay
Set-up in all cases: key: below the threshold = too weak to quantify, mostly under pKd 3.1 to 4
Settings in all cases: plain residues with an end cap or a label only (N-terminal biotin on a linker: ado-ado)
APBA1_1, Q02410 = target: T1, APBA1_1, Q02410
T1 sequence (Q02410 651-752, limits assumed, looked up): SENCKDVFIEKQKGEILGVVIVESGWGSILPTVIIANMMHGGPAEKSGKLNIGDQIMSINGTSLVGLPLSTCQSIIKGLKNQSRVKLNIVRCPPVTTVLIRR

APBA1_2, Q02410 = target: T2, APBA1_2, Q02410
T2 sequence (Q02410 742-832, limits assumed, looked up): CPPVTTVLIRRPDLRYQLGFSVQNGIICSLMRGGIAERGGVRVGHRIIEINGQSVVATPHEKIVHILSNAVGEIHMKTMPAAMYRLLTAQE

APBA2_1, Q99767 = target: T3, APBA2_1, Q99767
T3 sequence (Q99767 563-664, limits assumed, looked up): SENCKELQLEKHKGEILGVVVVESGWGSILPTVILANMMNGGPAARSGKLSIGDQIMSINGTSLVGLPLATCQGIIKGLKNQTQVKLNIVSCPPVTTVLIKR

APBA2_2, Q99767 = target: T4, APBA2_2, Q99767
T4 sequence (Q99767 654-744, limits assumed, looked up): T2 sequence (Q02410 742-832, limits assumed, looked up) with R10K, R15K, P59A, H65Q, I66A, A70S, Y84F, A89G

DLG4_1, P78352 = target: DLG4_1, P78352
Sequence of DLG4_1, P78352 (P78352 62-152): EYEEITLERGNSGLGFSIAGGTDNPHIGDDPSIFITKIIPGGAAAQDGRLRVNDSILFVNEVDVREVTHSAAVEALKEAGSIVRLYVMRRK

DVL3, Q92997 = target: T5, DVL3, Q92997
T5 sequence (Q92997 244-331, limits assumed, looked up): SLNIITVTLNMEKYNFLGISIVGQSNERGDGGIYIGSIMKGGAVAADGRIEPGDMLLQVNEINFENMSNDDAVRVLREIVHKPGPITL

FRMPD2_3, Q68DX3 = target: FRMPD2_3, Q68DX3
Sequence of FRMPD2_3, Q68DX3 (Q68DX3 1073-1166): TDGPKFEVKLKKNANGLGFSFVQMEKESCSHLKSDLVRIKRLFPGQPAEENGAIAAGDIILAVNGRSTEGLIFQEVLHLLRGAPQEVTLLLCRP

GRID2IP_1, A4D2P6 = target: GRID2IP_1, A4D2P6
Sequence of GRID2IP_1, A4D2P6 (A4D2P6 1-87): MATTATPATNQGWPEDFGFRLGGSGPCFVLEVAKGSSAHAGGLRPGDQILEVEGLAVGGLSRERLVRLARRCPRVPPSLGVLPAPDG

GRIP1_4, Q9Y3R0 = target: T6, GRIP1_4, Q9Y3R0
T6 sequence (Q9Y3R0 467-571, limits assumed, looked up): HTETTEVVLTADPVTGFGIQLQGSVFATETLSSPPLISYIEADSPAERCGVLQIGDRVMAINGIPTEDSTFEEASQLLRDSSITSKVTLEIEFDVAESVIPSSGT

GRIP2_4, Q9C0E4 = target: GRIP2_4, Q9C0E4
Sequence of GRIP2_4, Q9C0E4 (Q9C0E4 446-548): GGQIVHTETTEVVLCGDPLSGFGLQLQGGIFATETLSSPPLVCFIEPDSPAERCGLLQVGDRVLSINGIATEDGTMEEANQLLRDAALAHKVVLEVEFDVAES

HTRA3, P83110 = target: T7, HTRA3, P83110
T7 sequence (P83110 354-453, limits assumed, looked up): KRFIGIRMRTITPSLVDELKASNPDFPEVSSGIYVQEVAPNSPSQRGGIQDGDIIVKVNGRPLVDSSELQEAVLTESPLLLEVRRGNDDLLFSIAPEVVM

Inadl_4, Q8NI35 = target: Inadl_4, Q8NI35
Sequence of Inadl_4, Q8NI35 (Q8NI35 547-651): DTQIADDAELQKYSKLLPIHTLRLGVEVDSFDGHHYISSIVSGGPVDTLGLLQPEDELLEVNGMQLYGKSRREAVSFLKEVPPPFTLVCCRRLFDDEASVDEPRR

LIN7C, Q9NUP9 = target: T8, LIN7C, Q9NUP9
T8 sequence (Q9NUP9 88-185, limits assumed, looked up): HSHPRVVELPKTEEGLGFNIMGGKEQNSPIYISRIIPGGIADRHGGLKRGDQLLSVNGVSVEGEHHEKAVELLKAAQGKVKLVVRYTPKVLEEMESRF

LNX1_2, Q8TBB1 = target: LNX1_2, Q8TBB1
Sequence of LNX1_2, Q8TBB1 (Q8TBB1 371-470): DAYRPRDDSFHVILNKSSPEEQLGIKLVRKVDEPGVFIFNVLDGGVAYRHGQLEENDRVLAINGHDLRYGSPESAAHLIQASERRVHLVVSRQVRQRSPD

LNX1_3, Q8TBB1 = target: LNX1_3, Q8TBB1
Sequence of LNX1_3, Q8TBB1 (Q8TBB1 500-596): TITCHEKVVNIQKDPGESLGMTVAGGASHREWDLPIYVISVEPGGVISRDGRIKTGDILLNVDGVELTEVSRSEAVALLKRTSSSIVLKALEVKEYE

LNX2_2, Q8N448 = target: T9, LNX2_2, Q8N448
T9 sequence (Q8N448 334-432, limits assumed, looked up): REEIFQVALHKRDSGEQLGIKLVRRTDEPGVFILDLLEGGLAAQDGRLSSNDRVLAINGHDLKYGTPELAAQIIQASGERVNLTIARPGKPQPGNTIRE

LNX2_3, Q8N448 = target: T10, LNX2_3, Q8N448
T10 sequence (Q8N448 463-564, limits assumed, looked up): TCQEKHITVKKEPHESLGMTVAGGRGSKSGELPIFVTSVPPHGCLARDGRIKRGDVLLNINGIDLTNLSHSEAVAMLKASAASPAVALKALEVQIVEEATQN

MAGI2_2, Q86UL8 = target: MAGI2_2, Q86UL8
Sequence of MAGI2_2, Q86UL8 (Q86UL8 410-522): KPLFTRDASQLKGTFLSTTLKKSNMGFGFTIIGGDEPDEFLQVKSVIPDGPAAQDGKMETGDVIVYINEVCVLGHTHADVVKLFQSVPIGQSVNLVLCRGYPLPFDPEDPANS

MPDZ_10, O75970 = target: T11, MPDZ_10, O75970
T11 sequence (O75970 1624-1722, limits assumed, looked up): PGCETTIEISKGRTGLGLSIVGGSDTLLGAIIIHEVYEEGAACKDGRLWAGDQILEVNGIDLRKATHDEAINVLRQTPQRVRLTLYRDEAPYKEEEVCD

NHERF3_3, Q5T2W1 = target: T12, NHERF3_3, Q5T2W1
T12 sequence (Q5T2W1 238-333, limits assumed, looked up): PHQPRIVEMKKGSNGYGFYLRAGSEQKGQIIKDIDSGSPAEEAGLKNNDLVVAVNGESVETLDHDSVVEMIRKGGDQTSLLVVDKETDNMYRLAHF

NHERF4_2, Q86UT5 = target: NHERF4_2, Q86UT5
Sequence of NHERF4_2, Q86UT5 (Q86UT5 220-308): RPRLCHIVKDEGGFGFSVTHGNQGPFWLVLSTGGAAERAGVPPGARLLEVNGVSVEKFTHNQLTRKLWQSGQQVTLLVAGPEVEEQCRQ

NHERF4_4, Q86UT5 = target: NHERF4_4, Q86UT5
Sequence of NHERF4_4, Q86UT5 (Q86UT5 464-550): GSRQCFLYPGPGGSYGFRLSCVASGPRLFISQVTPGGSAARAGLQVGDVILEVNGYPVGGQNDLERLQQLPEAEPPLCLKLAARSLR

PDLIM1, O00151 = target: PDLIM1, O00151
Sequence of PDLIM1, O00151 (O00151 1-87): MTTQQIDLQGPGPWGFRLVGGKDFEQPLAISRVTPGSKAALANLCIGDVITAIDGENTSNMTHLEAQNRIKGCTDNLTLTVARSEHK

SCRIB_1, Q14160 = target: SCRIB_1, Q14160
Sequence of SCRIB_1, Q14160 (Q14160 718-814): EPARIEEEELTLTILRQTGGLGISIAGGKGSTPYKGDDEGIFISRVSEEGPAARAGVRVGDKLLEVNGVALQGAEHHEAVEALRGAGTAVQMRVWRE

SNTA1, Q13424 = target: T13, SNTA1, Q13424
T13 sequence (Q13424 82-180, limits assumed, looked up): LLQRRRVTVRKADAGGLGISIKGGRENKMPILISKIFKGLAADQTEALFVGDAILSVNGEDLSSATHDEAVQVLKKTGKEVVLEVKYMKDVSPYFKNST

B1: GLA, P06280 (peptide)
chain: TMQMSLKDLL
pKd (APBA1_1, Q02410): below the threshold
pKd (APBA1_2, Q02410): 3.53
pKd (APBA2_1, Q99767): below the threshold
pKd (APBA2_2, Q99767): below the threshold
pKd (DLG4_1, P78352): below the threshold
pKd (DVL3, Q92997): 3.6
pKd (FRMPD2_3, Q68DX3): 3.58
pKd (GRID2IP_1, A4D2P6): below the threshold
pKd (GRIP1_4, Q9Y3R0): below the threshold
pKd (GRIP2_4, Q9C0E4): below the threshold
pKd (HTRA3, P83110): below the threshold
pKd (Inadl_4, Q8NI35): below the threshold
pKd (LIN7C, Q9NUP9): below the threshold
pKd (LNX1_2, Q8TBB1): below the threshold
pKd (LNX1_3, Q8TBB1): below the threshold
pKd (LNX2_2, Q8N448): below the threshold
pKd (LNX2_3, Q8N448): below the threshold
pKd (MAGI2_2, Q86UL8): below the threshold
pKd (MPDZ_10, O75970): below the threshold
pKd (NHERF3_3, Q5T2W1): below the threshold
pKd (NHERF4_2, Q86UT5): below the threshold
pKd (NHERF4_4, Q86UT5): below the threshold
pKd (PDLIM1, O00151): below the threshold
pKd (SCRIB_1, Q14160): below the threshold
pKd (SNTA1, Q13424): below the threshold

B2: TTC24, A2A3L6 (peptide)
chain: PMESGICTIV
pKd (APBA1_1, Q02410): below the threshold
pKd (APBA1_2, Q02410): 4.75
pKd (APBA2_1, Q99767): below the threshold
pKd (APBA2_2, Q99767): below the threshold
pKd (DLG4_1, P78352): 4.71
pKd (DVL3, Q92997): 3.65
pKd (FRMPD2_3, Q68DX3): 3.53
pKd (GRID2IP_1, A4D2P6): below the threshold
pKd (GRIP1_4, Q9Y3R0): below the threshold
pKd (GRIP2_4, Q9C0E4): below the threshold
pKd (HTRA3, P83110): 3.92
pKd (Inadl_4, Q8NI35): below the threshold
pKd (LIN7C, Q9NUP9): below the threshold
pKd (LNX1_2, Q8TBB1): 4.37
pKd (LNX1_3, Q8TBB1): 3.53
pKd (LNX2_2, Q8N448): 5.56
pKd (LNX2_3, Q8N448): below the threshold
pKd (MAGI2_2, Q86UL8): 4.11
pKd (MPDZ_10, O75970): 3.76
pKd (NHERF3_3, Q5T2W1): below the threshold
pKd (NHERF4_2, Q86UT5): below the threshold
pKd (NHERF4_4, Q86UT5): below the threshold
pKd (PDLIM1, O00151): below the threshold
pKd (SCRIB_1, Q14160): 3.92
pKd (SNTA1, Q13424): 4.61

B4: PTH2R, P49190 (peptide)
chain: GCQGETEDVL
pKd (APBA1_1, Q02410): below the threshold
pKd (APBA1_2, Q02410): 3.52
pKd (APBA2_1, Q99767): below the threshold
pKd (APBA2_2, Q99767): below the threshold
pKd (DLG4_1, P78352): 3.51
pKd (DVL3, Q92997): below the threshold
pKd (FRMPD2_3, Q68DX3): below the threshold
pKd (GRID2IP_1, A4D2P6): below the threshold
pKd (GRIP1_4, Q9Y3R0): below the threshold
pKd (GRIP2_4, Q9C0E4): below the threshold
pKd (HTRA3, P83110): below the threshold
pKd (Inadl_4, Q8NI35): below the threshold
pKd (LIN7C, Q9NUP9): below the threshold
pKd (LNX1_2, Q8TBB1): below the threshold
pKd (LNX1_3, Q8TBB1): below the threshold
pKd (LNX2_2, Q8N448): below the threshold
pKd (LNX2_3, Q8N448): below the threshold
pKd (MAGI2_2, Q86UL8): below the threshold
pKd (MPDZ_10, O75970): below the threshold
pKd (NHERF3_3, Q5T2W1): below the threshold
pKd (NHERF4_2, Q86UT5): below the threshold
pKd (NHERF4_4, Q86UT5): below the threshold
pKd (PDLIM1, O00151): below the threshold
pKd (SCRIB_1, Q14160): below the threshold
pKd (SNTA1, Q13424): 3.9

Next, values leading:

pKd (APBA1_1, Q02410): below the threshold
pKd (APBA1_2, Q02410): below the threshold
pKd (APBA2_1, Q99767): below the threshold
pKd (APBA2_2, Q99767): below the threshold
pKd (DLG4_1, P78352): below the threshold
pKd (DVL3, Q92997): below the threshold
pKd (FRMPD2_3, Q68DX3): below the threshold
pKd (GRID2IP_1, A4D2P6): below the threshold
pKd (GRIP1_4, Q9Y3R0): below the threshold
pKd (GRIP2_4, Q9C0E4): below the threshold
pKd (HTRA3, P83110): below the threshold
pKd (Inadl_4, Q8NI35): below the threshold
pKd (LIN7C, Q9NUP9): 4.07
pKd (LNX1_2, Q8TBB1): below the threshold
pKd (LNX1_3, Q8TBB1): below the threshold
pKd (LNX2_2, Q8N448): below the threshold
pKd (LNX2_3, Q8N448): below the threshold
pKd (MAGI2_2, Q86UL8): below the threshold
pKd (MPDZ_10, O75970): below the threshold
pKd (NHERF3_3, Q5T2W1): below the threshold
pKd (NHERF4_2, Q86UT5): below the threshold
pKd (NHERF4_4, Q86UT5): below the threshold
pKd (PDLIM1, O00151): below the threshold
pKd (SCRIB_1, Q14160): below the threshold
pKd (SNTA1, Q13424): below the threshold
B3: GRIP1, Q9Y3R0 (peptide)
chain: LETREPTNTL

pKd (APBA1_1, Q02410): below the threshold
pKd (APBA1_2, Q02410): below the threshold
pKd (APBA2_1, Q99767): below the threshold
pKd (APBA2_2, Q99767): below the threshold
pKd (DLG4_1, P78352): below the threshold
pKd (DVL3, Q92997): below the threshold
pKd (FRMPD2_3, Q68DX3): below the threshold
pKd (GRID2IP_1, A4D2P6): below the threshold
pKd (GRIP1_4, Q9Y3R0): below the threshold
pKd (GRIP2_4, Q9C0E4): below the threshold
pKd (HTRA3, P83110): below the threshold
pKd (Inadl_4, Q8NI35): below the threshold
pKd (LIN7C, Q9NUP9): 4.07
pKd (LNX1_2, Q8TBB1): below the threshold
pKd (LNX1_3, Q8TBB1): below the threshold
pKd (LNX2_2, Q8N448): below the threshold
pKd (LNX2_3, Q8N448): below the threshold
pKd (MAGI2_2, Q86UL8): below the threshold
pKd (MPDZ_10, O75970): below the threshold
pKd (NHERF3_3, Q5T2W1): below the threshold
pKd (NHERF4_2, Q86UT5): below the threshold
pKd (NHERF4_4, Q86UT5): below the threshold
pKd (PDLIM1, O00151): below the threshold
pKd (SCRIB_1, Q14160): below the threshold
pKd (SNTA1, Q13424): below the threshold
B5: ADGRE5, P48960 (peptide)
chain: RALRASESGI
